Results on 27 molecules are retold here after patent US20200279616A1.

To fix the notation:
T1: HLA-DRB1*01:01 (biochemical MHC-peptide affinity assay) (human)
T1 chain 1: not shown
T1 chain 2: not shown

T2: HLA-DRB1*11:01 (biochemical MHC-peptide affinity assay) (human)
T2 chain 1: not shown
T2 chain 2: not shown

B1: M371 (peptide)
peptide: ASLRSWPSTWAPWAS
modifications: not checked
B2: M247 (peptide)
peptide: PQLRQWWAQGADPLA
modifications: not checked
B3: M231 (peptide)
peptide: PQILPYPAPEEAQEN
modifications: not checked
B4: M230 (peptide)
peptide: PPIDGYPNHPCFEPE
modifications: not checked
B5: M248 (peptide)
peptide: LLRPGQIVAFDSTAQ
modifications: not checked
B6: … (peptide)
peptide: SPHAFKTESGEETDL
modifications: not checked
B7: … (peptide)
peptide: GVQRGLVGEIIKR
modifications: not checked
B8: … (peptide)
peptide: MPSFVPSDGRQAAD
modifications: not checked
B9: … (peptide)
peptide: TWFNQPARKIR
modifications: not checked
B10: … (peptide)
peptide: GLRYKKLHDPKGWIT
modifications: not checked
B11: … (peptide)
peptide: DKKNIILEEGKEILVG
modifications: not checked
B12: … (peptide)
peptide: GHPDLQGQPAEEIFES
modifications: not checked
B13: … (peptide)
peptide: DRYEMEDGKVIER
modifications: not checked
B14: … (peptide)
peptide: LAPTWEELSKKEFPG
modifications: not checked
B15: … (peptide)
peptide: TRNEVIPMSHPGAVD
modifications: not checked
B16: … (peptide)
peptide: IAGEWQVLHREGAIT
modifications: not checked
B17: … (peptide)
peptide: DLEELEVLERKPAAG
modifications: not checked
B18: … (peptide)
peptide: GMNIVEAMERFGSRNG
modifications: not checked
B19: … (peptide)
peptide: YEDKFRNNLKGKRLD
modifications: not checked
B20: … (peptide)
peptide: LNELKPISKGGHSS
modifications: not checked
B21: … (peptide)
peptide: DVNEYAPVFKEKSYK
modifications: not checked
B22: … (peptide)
peptide: EGEYQGIPRAESGG
modifications: not checked
B23: … (peptide)
peptide: GPFSFSVIDKPPG
modifications: not checked
B24: … (peptide)
peptide: ENPYFAPNPKIIRQ
modifications: not checked
B25: … (peptide)
peptide: GQQWTYEQRKIVE
modifications: not checked
B26: … (peptide)
peptide: EPAEFIIDTRDAGYG
modifications: not checked

The target of the first assay is T3, Thrombin digested soluble HLA-DRB1*15:01 (CLIP0 placeholder construct) (human). The assay is described as follows: FP probe displacement; probe m27.
Turning to B1, the % inhibition of probe binding at 0.1uM worked out at 46%, the % inhibition of probe binding at 1uM was 58% and the % inhibition of probe binding at 10uM turned out to be 74%.
In the case of B2, the % inhibition of probe binding at 0.1uM stood at 42%, the % inhibition of probe binding at 1uM worked out at 50% and the % inhibition of probe binding at 10uM came out at 58%.
The like results for B3 were, in that order, 21%, 50% and 66%.
The like results for B4 were, in that order, 49%, 79% and 82%.
Taken in the same sequence, the figures for B5 were 1%, 6% and 61%.

In the next assay the target is T1, HLA-DRB1*01:01 (biochemical MHC-peptide …). Description: biochemical MHC-peptide affinity assay.
Regarding B6, the Measured affinity was 333 nM.
Same read-out and setting: next, B7: 8 nM; B8: 3 nM.
Still for that read-out and setting: the result for B9 reads 8 nM; that for B10, 30 nM.
Still for that read-out and setting: the result for B11 reads 27 nM.
B12 returned a Measured affinity of 189 nM.
On to B13, for which the Measured affinity was 54 nM.

The target of a further assay is T2, HLA-DRB1*11:01 (biochemical MHC-peptide …). Description: biochemical MHC-peptide affinity assay.
With B14, the Measured affinity worked out at 174 nM.
Same read-out and setting: the result for B15 reads 36 nM.
Same read-out and setting: the result for B16 reads 35 nM; that for B17, 63 nM.
The same measure, in the same setting: next, B18: 79 nM; B19: 254 nM.
Molecule B20 registered a Measured affinity of 67 nM.
The same measure, in the same setting: next, B21: 223 nM.
On the same count and under the same terms, the result for B22 reads 159 nM.
Same read-out and setting: the result for B23 reads 209 nM.
As for B24, the Measured affinity worked out at 128 nM.
The same measure, in the same setting: next, B25: 145 nM.
Same read-out and setting: the result for B26 reads 195 nM.

The target in a further assay is T3, Thrombin digested soluble …. The assay is described as follows: differential scanning fluorometry after peptide exchange (Sypro orange).
Molecule B1 registered a DTm (sample Tm - control Tm) of 19.9.
The same measure, in the same setting: the result for B2 reads 20.1.
On to B3, for which the Average Tm amounted to 73.9 and the DTm (sample Tm - control Tm) is 15.6.
As to B4, the DTm (sample Tm - control Tm) was 21.4.
In the case of B5, the DTm (sample Tm - control Tm) was 5.6.

For a further assay, the target named is HLA monomer of the STII-TR-FRET peptide exchange assay (secreted HLA class II alpha/beta heterodimer; allele not stated). Description: TR-FRET peptide exchange titration on 20nM DRB1*01:01 (STII-CLIP), 37C; displaced: m2.
CLIP (peptide) yielded an IC50 (read off the curve) of 70 nM.
